A value given as a limit tells only on which side of the number the result lay.

What all share (settings): both partners purified
The target in assay [1] is T1, heat-labile enterotoxin B-subunit pentamer (LTB-6HIS-3FLAG) (Escherichia coli (ETEC), human-type …, UniProt P0CK94, biotin (NHS-PEG4-Biotin) in the DELFIA experiments only). Nature of the assay: BLI; Octet RED96; […] (76 nM) […] (120–0.470 nM); […]. (In general: Biolayer interferometry detects binding as a change in optical thickness at a sensor tip.)
Assay [2] addresses T1, heat-labile enterotoxin B-subunit …. Nature of the assay: SPR; Biacore 8K+; […] (1–300 nM); single-cycle kinetics, HBS-EP+, 30 µl min^−1, 25 °C; global 1:1 model; […]. (In general: Surface plasmon resonance follows binding to a sensor surface in real time, without labels.)
In assay [3] the target is T2, cholera toxin B-subunit pentamer (Vibrio cholerae; ctxB genotype of …, UniProt P01556).
T2 construct: source: bought: Sigma-Aldrich (C9903)
Nature of the assay: BLI.

Assay [4] has as its target T1, heat-labile enterotoxin B-subunit …. Put plainly: SPR; Biacore 8K+; […] (1–300 nM); single-cycle kinetics, HBS-EP+, 30 µl min^−1, 25 °C; global 1:1 model.
Assay [5] deals with T3, cholera toxin holotoxin (AB5) (Vibrio cholerae; strain/ctxB genotype …, UniProt P01555;P01556).
T3 construct: source: Vibrio natriegens, from culture medium, purified (D-galactose column, SEC); copies: 1 + 5
T3 sequence (P01556 22-124, looked up, chain 1 of 2): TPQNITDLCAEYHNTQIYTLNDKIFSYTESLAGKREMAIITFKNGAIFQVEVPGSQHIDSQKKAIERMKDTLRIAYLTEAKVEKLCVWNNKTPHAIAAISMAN
T3 sequence (P01555 whole entry, looked up, chain 2 of 2): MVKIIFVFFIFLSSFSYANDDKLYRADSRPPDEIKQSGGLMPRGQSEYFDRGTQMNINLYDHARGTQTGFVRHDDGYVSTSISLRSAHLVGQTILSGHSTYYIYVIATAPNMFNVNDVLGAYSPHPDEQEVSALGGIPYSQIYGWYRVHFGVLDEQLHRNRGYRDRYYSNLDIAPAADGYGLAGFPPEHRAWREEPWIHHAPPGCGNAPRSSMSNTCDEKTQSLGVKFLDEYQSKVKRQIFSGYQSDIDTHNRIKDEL
Put plainly: SEC. In general terms: Size exclusion chromatography separates by hydrodynamic size, large species first.

Assay [6] concerns the target T4, LTB pentamer (receptor-binding B-subunit of heat-labile enterotoxin), LTB-6HIS-3FLAG (Escherichia coli (ETEC), human-type …, UniProt P0CK94).
T4 construct: source: E. coli BL21 (DE3), periplasmic extract, purified (IMAC)
Nature of the assay: SPR; Biacore 8K+; […] (1 µg/ml) […] (1-300 nM), single-cycle kinetics, HBS-EP+, 30 µl/min, 25 °C; global 1:1 fit; […].

Assay [7] deals with T5, CTXB pentamer (receptor-binding B-subunit of cholera toxin) (Vibrio cholerae; ctxB genotype of …, UniProt P01556).
T5 construct: source: bought: Sigma-Aldrich (C9903)
The description is as above.

In assay [8] the target is T4, LTB pentamer (receptor-binding …). Put plainly: BLI; Octet RED96; […] (76 nM) […] (120-0.470 nM); global 1:1 ([…]) fit; […].
In assay [9] the target is T5, CTXB pentamer (receptor-binding …). The assay is described as above.
Assay [10] addresses T4, LTB pentamer (receptor-binding …). Nature of the assay: SPR; Biacore 8K+; […] (5 µg/ml) […] (1-300 nM), single-cycle kinetics, HBS-EP+, 30 µl/min, 25 °C; global 1:1 fit; […].
The target in assay [11] is T5, CTXB pentamer (receptor-binding …). Described as above.

B1: monovalent VHH BL2.1 (VHH)
VHH: QVQLQQSGGGLVQAGGSLRLSCAASGFTFDDYAIGWFRQAPGKEREGISSIVGSDNYTWYTDSVKGRFTISSDNTRSTVYLQMNSLKPEDTAVYYCAADSYSDYVSLNPETFGSWGQGTQVTVSS
notes: also called LT109; non-N-glycosylated BL2.1; source: E. coli BL21 (DE3), periplasmic extract, purified (IMAC, cation exchange)
As a reminder, the Kd is the equilibrium constant for the complex coming apart. Lower therefore signals higher affinity. In the case of B1, the dissociation constant Kd in assay [1] was less than 1 pM; in assay [2], 3 pM; in assay [3], 0.33 nM; in [4], 0.26 nM. Also, the binding result in assay [5] is reported as “binds”.

B2: BL2.1 (monovalent VHH) (VHH)
VHH: B1 VHH
notes: also called LT109; VHH BL2.1; source: E. coli BL21 (DE3), periplasmic extract, purified (IMAC, cation exchange)
By koff is commonly meant the first-order rate constant of dissociation. Higher therefore signals fast dissociation. Broadly, the kon is the second-order rate constant of association. Read a low kon as slower complex formation. On to B2, for which the koff in assay [6] was 2.48e-05 s⁻¹; in assay [7] it was 0.000212 s⁻¹; in assay [8], less than 1e-07 s⁻¹; in assay [9] it was 3.53e-05 s⁻¹; in assay [10] it was 0.000182 s⁻¹; in assay [11] it was 0.00179 s⁻¹. Also, the kon in assay [6] came out at 7.93e+06 M⁻¹ s⁻¹; in assay [7], 557000 M⁻¹ s⁻¹; in [8], 69700 M⁻¹ s⁻¹; in assay [9], 108000 M⁻¹ s⁻¹; in assay [10], 696000 M⁻¹ s⁻¹; in assay [11] it was 218000 M⁻¹ s⁻¹.

These data come from PMC12754688 (Gut Microbes, 2025).
